US11066455B2, “Tmem100 peptides and variants thereof and their use in treating or preventing diseases or conditions” (The Johns Hopkins University, priority 2014, dated 2021)
* marks the point of attachment. Myristoyl = CCCCCCCCCCCCCC(=O)*

Experiments:
[1] = tested on: MO-induced pain in wild-type mice; assay: Mustard oil injection in hindpaw: acute nocifensive behavior and von Frey mechanical hyperalgesia; type: in vivo, mouse
Description: Mice were placed in a transparent plastic box (4.5×5×10 cm) on a metal mesh and acclimatized for 30 minutes prior to testing. Each mouse was tested more than 5 times at a specific force manually, and the threshold was determined by the lowest force needed to elicit responses more than 50% of the time.
Mice were injected intradermally in the hind paw with 6 μL of 0.2% mustard oil (Sigma-Aldrich 377430) with Hamilton needles (80300). The mice were placed in a plexiglass cylinder, and the total time spent licking and flinching was recorded for the first 10 minutes after injection. Thirty and sixty minutes after injection, the mice were assayed with von Frey filaments for mechanical hyperalgesia.
The sequence from the last 28 amino acids of the C-terminus of the Tmem100-3Q mutant protein was synthesized and myristoylated at its N-terminus (myr-[…]-COOH) (SEQ ID NO: 8) by Twentyfirst Century Biochemicals. […] For the calcium imaging assay, the peptides were added to the calcium imaging buffer with a final concentration of 200 nM and incubated for at least […] at room temperature. For the mice behavioral assays, the peptides (5 μL, 2 mM) were injected subcutaneously in the hindpaw at least 30 minutes before testing. For the rat behavior assays, human T100-3Q (h-T100), a palmitoylated cell permeable peptide mutated based on the C terminus of human sequence in Tmem100, was applied. […]

[2] = tested on: T1, TRPA1; assay: Cell-attached single-channel recording in CHO cells, MO-induced activity (NPo); type: cell-based; conditions: Vh=-60 mV; co-expressed with TRPA1+TRPV1 (1:1:4) in CHO cells
T1 construct: MO (10 μM)-evoked Ca2+ influx; other: TRPA1+TRPV1+Tmem100-3Q (1:1:4) CHO cells; MO (10 μM)-gated whole-cell current density; other: Vh=-60 mV; TRPA1+TRPV1+Tmem100-3Q (1:1:4) CHO cells; MO (10 μM)-induced single-channel activity (NPo); co-expressed with TRPA1+TRPV1 (1:1:4) in CHO cells
Description: (§1) Recordings were made in cell-attached single-channel or whole-cell voltage clamp configurations at 22-24° C. from the somata of small-to-medium mouse DRG neurons (15-35 pF) or CHO cells. For whole-cell configuration, holding potential (Vh) is −60 mV. Data were acquired and analyzed using an Axopatch 200B amplifier and pCLAMP9.0 software (Molecular Devices, Sunnyvale, Calif.). Borosilicate pipettes (Sutter, Novato, Calif.) were pulled and polished to resistances of 3-5 MΩ (in whole-cell and single-channel pipette solutions). Access resistance (Rs) was compensated (40-80%) when appropriate up to the value 7-10 MΩ for whole-cell configuration. Whole-cell recording data were filtered at 0.5 kHz and sampled at 2 kHz. Single-channels currents were filtered with an 8-pole, low pass Bessel filter at 0.1 kHz and sampled at 0.5 kHz, since dwelling time (τ) of the TRPA1 and TRPV1 single-currents were >0.5 sec. Whole-cell recorded data were rejected when Rs changed >20% during recording, leak currents were >100 pA, or input resistance was <200 MΩ.
(§2) Single-channel unitary current (i) was determined from the best-fit Gaussian distribution of amplitude histograms. Single-channel activity was analyzed as NPo=I/i, where I is the mean total current in a patch and i is unitary current at this voltage. For single channel slope conductances, linear fitting was used separately for positive and negative holding potentials. The slope conductances presented in figures were determined from fitting negative hold potentials (from −60 to 0 mV). The single-channel recording data were analyzed with Clampfit 9 software. This has an “event detection analysis” function that analyzes current traces and determines the number of channels in the patch (N), how many sub-conductances are present, and what the main conductance is. In order to increase the accuracy of the Po measurement, only patches containing fewer than 3 channels were used. For patches containing both TRPA1 and TRPV1, only those with equal numbers of TRPA1 and TRPV1 were used. This was monitored in each recording by applying MO and then CAP.
(§3) Standard external solution (SES) for whole-cell patch recording contained (in mM): 140 NaCl, 5 KCl, 2 CaCl2, 1 MgCl2, 10 D-glucose and 10 HEPES, pH 7.4. Vehicle, which is 0.01% DMSO, was added to external solutions. The bath solution for single-channel recording (SES-SCh) of TRP currents consisted of (in mM): 100 K-gluconate, 4 KCl, 1 MgCl2, 1 EGTA, 10 D-glucose and 10 Hepes (pH 7.3). The standard pipette solution (SIS) for the whole-cell configurations contained (in mM): 140 KCl, 1 MgCl2, 1 CaCl2, 10 EGTA, 10 D-glucose, 10 HEPES, pH 7.3. […] The baseline activities of the cells were recorded for 1-2 min prior drug applications. […]

[3] = tested on: TRPA1; assay: as above; type: cell-based; conditions: Vh=-60 mV; co-expressed with TRPA1 only (1:4) in CHO cells
Description: as §1, §2, §3

Row | Molecule | MO-induced mechanical hyperalgesia (mechanical threshold) ([1]; peptide 5 μl of 2 mM pre-treatment) | MO-induced acute nocifensive behavior (time) ([1]; peptide 5 μl of 2 mM pre-treatment in hindpaw) | MO (10 μM)-induced single-channel activity (NPo) [2] | MO (10 μM)-induced single-channel activity (NPo) [3]
1 | myr-QRVLEQVLQNWSRRANVKQAQKFQVKCT-COOH (Myristoyl-QRVLEQVLQNWSRRANVKQAQKFQVKCT-OH; SMILES CCCCCCCCCCCCCC(=O)N[C@@H](CCC(N)=O)C(=O)N[C@@H](CCCNC(=N)N)C(=O)N[C@H](C(=O)N[C@@H](CC(C)C)C(=O)N[C@@H](CCC(=O)O)C(=O)N[C@@H](CCC(N)=O)C(=O)N[C@H](C(=O)N[C@@H](CC(C)C)C(=O)N[C@@H](CCC(N)=O)C(=O)N[C@@H](CC(N)=O)C(=O)N[C@@H](Cc1c[nH]c2ccccc12)C(=O)N[C@@H](CO)C(=O)N[C@@H](CCCNC(=N)N)C(=O)N[C@@H](CCCNC(=N)N)C(=O)N[C@@H](C)C(=O)N[C@@H](CC(N)=O)C(=O)N[C@H](C(=O)N[C@@H](CCCCN)C(=O)N[C@@H](CCC(N)=O)C(=O)N[C@@H](C)C(=O)N[C@@H](CCC(N)=O)C(=O)N[C@@H](CCCCN)C(=O)N[C@@H](Cc1ccccc1)C(=O)N[C@@H](CCC(N)=O)C(=O)N[C@H](C(=O)N[C@@H](CCCCN)C(=O)N[C@@H](CS)C(=O)N[C@H](C(=O)O)[C@@H](C)O)C(C)C)C(C)C)C(C)C)C(C)C) [scrambled] | 0.1 ± 0.03 g | 80 ± 9 s | – | –
2 | Tmem100-3Q mutant (full-length, mouse) (protein) MTEESTKENLGAPKSPTPVTMEKNPKREVVVTTGPLVSEVQLMAATGGAELSCYRCIIPFAVVVFITGIVVTAVAYSFNSHGSIISIFGLVLLSSGLFLLASSALCWKVRQRNKKVQQQESQTALVVNQRCLFA | – | – | 0.16±0.06 | 1.05±0.14
3 | Tmem100: 134-amino acid two-transmembrane protein, regulator of TRPA1 (SEQ ID NO: 1/2), expressed in cells (protein, listed as Homo sapiens, listed as Mus musculus) chain 1: MTEEPIKEILGAPKAHMAATMEKSPKSEVVITTVPLVSEIQLMAATGGTELSCYRCIIPFAVVVFIAGIVVTAVAYSFNSHGSIISIFGLVVLSSGLFLLASSALCWKVRQRSKKAKRRESQTALVANQRSLFA chain 2: MTEESTKENLGAPKSPTPVTMEKNPKREVVVTTGPLVSEVQLMAATGGAELSCYRCIIPFAVVVFITGIVVTAVAYSFNSHGSIISIFGLVLLSSGLFLLASSALCWKVRQRNKKVKRRESQTALVVNQRCLFA | – | – | 1.05±0.14 | 0.64±0.18
